From US6413730

Target: T1, GST-hElk-L cytoplasmic domain fusion protein (GST-Elk-L cyt) (UniProt P98172)
T1 sequence: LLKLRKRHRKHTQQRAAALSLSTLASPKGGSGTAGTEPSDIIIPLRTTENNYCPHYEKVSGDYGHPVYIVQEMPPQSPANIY

For v-Src, the “in vitro kinase assay with 32P-gamma-ATP, autoradiography” value was “A GST fusion protein containing the cytoplasmic domain of human Elk-L (residues 262-343) was tyrosine phosphorylated by v-Src in vitro”.
